{
  "source": "FireProtDB (doi:10.1021/bi00815a015)",
  "proteins": {"B1": {"name": "Guanyl-specific ribonuclease T1 wild type, P00651 (protein)", "chain": "MMYSKLLTLTTLLLPTALALPSLVERACDYTCGSNCYSSSDVSTAQAAGYQLHEDGETVGSNSYPHKYNNYEGFDFSVSSPYYEWPILSSGDVYSGGSPGADRVVFNENNQLAGVITHTGASGNNFVECT"}},
  "conditions": "Aspergillus oryzae (strain ATCC 42149 / RIB 40), Thermal, DSC, whole UniProt chain shown",
  "key": {"[1]": {"conditions": "pH 0.36, glycine 0.2 N, HCl, reversible: yes"}, "[2]": {"conditions": "pH 1.05, HCl, NaCl 0.2 N, reversible: yes"}, "[3]": {"conditions": "pH 2.02, glycine 0.2 N, reversible: yes"}, "[4]": {"conditions": "pH 2.8, glycine 0.2 N, reversible: yes"}, "[5]": {"conditions": "pH 3.28, glycine 0.2 N, reversible: yes"}, "[6]": {"conditions": "pH 4.04, acetate 0.2 N, reversible: no"}, "[7]": {"conditions": "pH 5, acetate 0.2 N, reversible: no"}, "[8]": {"conditions": "pH 6.23, acetate 0.2 N, reversible: no"}, "[9]": {"conditions": "pH 7, None, NaCl 0.2 N, reversible: no"}, "[10]": {"conditions": "pH 7.8, None, NaCl 0.2 N, reversible: no"}},
  "note": "Where “and” joins values, the source holds several entries; their conditions need not be identical. Equal entries are not always repeated.",
  "data": [
    {"protein": "B1", "values": [
      {"measurement": "Tm", "setting": "pH 0.36, HCl, reversible: yes", "result": 25, "unit": "°C"},
      {"measurement": "unfolding enthalpy (calorimetric)", "setting": "pH 0.36, HCl, reversible: yes", "result": 48.7, "unit": "kcal/mol"},
      {"measurement": "Tm", "setting": "[1]", "result": 31.5, "unit": "°C"},
      {"measurement": "heat capacity change of unfolding", "setting": "[1]", "result": 1.9, "unit": "kcal/mol/K"},
      {"measurement": "unfolding enthalpy (calorimetric)", "setting": "[1]", "result": 61.2, "unit": "kcal/mol"},
      {"measurement": "unfolding enthalpy (van 't Hoff)", "setting": "[1]", "result": 62, "unit": "kcal/mol"},
      {"measurement": "Tm", "setting": "[2]", "result": 25, "unit": "°C"},
      {"measurement": "unfolding enthalpy (calorimetric)", "setting": "[2]", "result": 49.1, "unit": "kcal/mol"},
      {"measurement": "Tm", "setting": "[3]", "result": 31.2, "unit": "°C"},
      {"measurement": "heat capacity change of unfolding", "setting": "[3]", "result": 1.98, "unit": "kcal/mol/K"},
      {"measurement": "unfolding enthalpy (calorimetric)", "setting": "[3]", "result": 65.6, "unit": "kcal/mol"},
      {"measurement": "unfolding enthalpy (van 't Hoff)", "setting": "[3]", "result": 67, "unit": "kcal/mol"},
      {"measurement": "heat capacity change of unfolding", "setting": "[4]", "result": 2.11, "unit": "kcal/mol/K"},
      {"measurement": "unfolding enthalpy (calorimetric)", "setting": "[4]", "result": "87.7 kcal/mol and 54.8 kcal/mol"},
      {"measurement": "unfolding enthalpy (van 't Hoff)", "setting": "[4]", "result": 68, "unit": "kcal/mol"},
      {"measurement": "Tm", "setting": "[5]", "result": 25, "unit": "°C"},
      {"measurement": "unfolding enthalpy (calorimetric)", "setting": "[5]", "result": 63.4, "unit": "kcal/mol"},
      {"measurement": "heat capacity change of unfolding", "setting": "[6]", "result": 2.08, "unit": "kcal/mol/K"},
      {"measurement": "unfolding enthalpy (calorimetric)", "setting": "[6]", "result": "126 kcal/mol and 69.2 kcal/mol"},
      {"measurement": "unfolding enthalpy (van 't Hoff)", "setting": "[6]", "result": 64, "unit": "kcal/mol"},
      {"measurement": "heat capacity change of unfolding", "setting": "[7]", "result": 2.25, "unit": "kcal/mol/K"},
      {"measurement": "unfolding enthalpy (calorimetric)", "setting": "[7]", "result": "151 kcal/mol and 77.2 kcal/mol"},
      {"measurement": "unfolding enthalpy (van 't Hoff)", "setting": "[7]", "result": 60, "unit": "kcal/mol"},
      {"measurement": "heat capacity change of unfolding", "setting": "[8]", "result": 2.05, "unit": "kcal/mol/K"},
      {"measurement": "unfolding enthalpy (calorimetric)", "setting": "[8]", "result": "156 kcal/mol and 81.2 kcal/mol"},
      {"measurement": "unfolding enthalpy (van 't Hoff)", "setting": "[8]", "result": 66, "unit": "kcal/mol"},
      {"measurement": "heat capacity change of unfolding", "setting": "[9]", "result": 2.07, "unit": "kcal/mol/K"},
      {"measurement": "unfolding enthalpy (calorimetric)", "setting": "[9]", "result": "168 kcal/mol and 92.9 kcal/mol"},
      {"measurement": "unfolding enthalpy (van 't Hoff)", "setting": "[9]", "result": 88, "unit": "kcal/mol"},
      {"measurement": "heat capacity change of unfolding", "setting": "[10]", "result": 2, "unit": "kcal/mol/K"},
      {"measurement": "unfolding enthalpy (calorimetric)", "setting": "[10]", "result": "178 kcal/mol and 106 kcal/mol"},
      {"measurement": "unfolding enthalpy (van 't Hoff)", "setting": "[10]", "result": 72, "unit": "kcal/mol"}
    ]}
  ]
}
